Target: T1, full-length human kinesin-1 heavy chain (KIF5B) (human, UniProt P33176 1-963, LD555, LD655 or Alexa488 label (imaging assays))
T1 sequence (looked up): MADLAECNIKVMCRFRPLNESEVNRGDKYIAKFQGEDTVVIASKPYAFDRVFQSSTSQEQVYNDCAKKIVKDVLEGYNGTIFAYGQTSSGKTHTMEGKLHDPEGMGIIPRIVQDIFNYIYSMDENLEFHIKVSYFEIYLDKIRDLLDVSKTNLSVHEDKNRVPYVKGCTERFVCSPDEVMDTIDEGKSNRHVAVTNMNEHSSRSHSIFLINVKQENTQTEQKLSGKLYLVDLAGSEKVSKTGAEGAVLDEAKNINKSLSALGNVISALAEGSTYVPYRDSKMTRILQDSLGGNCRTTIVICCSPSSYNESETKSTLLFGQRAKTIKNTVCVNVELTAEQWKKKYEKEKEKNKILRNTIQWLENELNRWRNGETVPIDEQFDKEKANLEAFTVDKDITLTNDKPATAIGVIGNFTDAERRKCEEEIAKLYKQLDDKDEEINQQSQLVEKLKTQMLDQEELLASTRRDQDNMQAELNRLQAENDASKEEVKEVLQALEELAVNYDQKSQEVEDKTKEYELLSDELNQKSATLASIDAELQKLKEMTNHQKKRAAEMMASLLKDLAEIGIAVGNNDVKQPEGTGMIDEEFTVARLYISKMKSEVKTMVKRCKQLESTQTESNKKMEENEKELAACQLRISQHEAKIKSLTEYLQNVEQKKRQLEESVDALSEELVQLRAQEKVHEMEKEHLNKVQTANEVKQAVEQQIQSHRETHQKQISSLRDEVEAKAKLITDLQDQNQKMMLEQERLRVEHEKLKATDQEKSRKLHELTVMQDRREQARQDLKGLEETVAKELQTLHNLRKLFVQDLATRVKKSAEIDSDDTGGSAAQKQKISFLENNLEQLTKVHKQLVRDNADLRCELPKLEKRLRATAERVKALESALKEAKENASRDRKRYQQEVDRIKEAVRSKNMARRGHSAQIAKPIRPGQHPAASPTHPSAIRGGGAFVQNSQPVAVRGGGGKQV
Assay: single-molecule colocalisation on microtubules

- binding result: binds
B1: TRAK1^1-532 (domain or fragment, human, UniProt Q9UPV9 1-532, looked up)
chain: MALVFQFGQPVRAQPLPGLCHGKLIRTNACDVCNSTDLPEVEIISLLEEQLPHYKLRADTIYGYDHDDWLHTPLISPDANIDLTTEQIEETLKYFLLCAERVGQMTKTYNDIDAVTRLLEEKERDLELAARIGQSLLKKNKTLTERNELLEEQVEHIREEVSQLRHELSMKDELLQFYTSAAEESEPESVCSTPLKRNESSSSVQNYFHLDSLQKKLKDLEEENVVLRSEASQLKTETITYEEKEQQLVNDCVKELRDANVQIASISEELAKKTEDAARQQEEITHLLSQIVDLQKKAKACAVENEELVQHLGAAKDAQRQLTAELRELEDKYAECMEMLHEAQEELKNLRNKTMPNTTSRRYHSLGLFPMDSLAAEIEGTMRKELQLEEAESPDITHQKRVFETVRNINQVVKQRSLTPSPMNIPGSNQSSAMNSLLSSCVSTPRSSFYGSDIGNVVLDNKTNSIILETEAADLGNDERSKKPGTPGTPGSHDLETALRRLSLRRENYLSERRFFEEEQERKLQELAEKGE
modifications: LD555 dye on the SNAP tag (imaging assays)

Reference: doi:10.1101/2021.07.30.454553 (bioRxiv, 2021)
